Positions count from the first letter of the chain named.
Experiments:
FL4-06 B-m2-CL1+5-GCN4a = target: T1, FL4-06 B-m2-CL1+5-GCN4a (influenza B virus, UniProt P03461 6-574); assay: FACS, transfected cells
T1 chain: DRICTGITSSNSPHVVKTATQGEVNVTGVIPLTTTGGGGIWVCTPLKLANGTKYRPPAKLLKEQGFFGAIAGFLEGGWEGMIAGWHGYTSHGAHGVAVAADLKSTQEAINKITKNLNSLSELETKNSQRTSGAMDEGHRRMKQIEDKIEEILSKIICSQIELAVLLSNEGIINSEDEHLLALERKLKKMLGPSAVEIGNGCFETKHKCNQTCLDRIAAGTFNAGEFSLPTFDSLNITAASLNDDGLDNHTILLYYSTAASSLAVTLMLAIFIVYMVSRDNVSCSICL

Mal2506-04 B-m2-CL1+5 = target: T2, Mal2506-04 B-m2-CL1+5 (influenza B virus, UniProt P03461 6-574); assay: FACS, transfected cells
T2 chain: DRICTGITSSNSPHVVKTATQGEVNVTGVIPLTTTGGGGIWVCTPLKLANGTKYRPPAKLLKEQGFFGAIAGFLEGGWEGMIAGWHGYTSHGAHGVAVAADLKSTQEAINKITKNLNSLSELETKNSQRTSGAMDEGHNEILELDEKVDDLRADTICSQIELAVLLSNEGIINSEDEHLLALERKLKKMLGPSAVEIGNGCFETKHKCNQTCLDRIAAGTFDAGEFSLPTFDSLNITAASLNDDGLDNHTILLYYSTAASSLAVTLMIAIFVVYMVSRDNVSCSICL

Mal2506-04 B-m2 = target: T3, Mal2506-04 B-m2 (influenza B virus, UniProt P03461 6-574); assay: FACS, transfected cells
T3 chain: T2 chain with C43K, T124V, S127L, T130L, G137L, C157S

FL4-06 B-m2 = FL4-06 B-m2 (influenza B virus, UniProt P03461 6-574); assay: FACS, transfected cells
[1] = target: T4, Mal2506-04 B-m2-CL1+5-GCN4b (influenza B virus, UniProt P03461 6-574); assay: FACS, transfected cells
T4 chain: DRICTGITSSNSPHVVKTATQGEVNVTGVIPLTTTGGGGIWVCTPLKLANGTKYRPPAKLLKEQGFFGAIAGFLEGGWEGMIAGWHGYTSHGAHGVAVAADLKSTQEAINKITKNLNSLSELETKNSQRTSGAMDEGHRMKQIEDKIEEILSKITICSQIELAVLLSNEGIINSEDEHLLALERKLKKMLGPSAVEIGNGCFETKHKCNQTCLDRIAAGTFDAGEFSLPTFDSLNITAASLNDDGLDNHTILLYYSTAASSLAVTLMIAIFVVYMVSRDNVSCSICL

FL4-06 B-m2-CL1+5 = target: T5, FL4-06 B-m2-CL1+5 (influenza B virus, UniProt P03461 6-574); assay: FACS, transfected cells
T5 chain: T2 chain with D222N, I268L, V272I

[2] = target: hemagglutinin of influenza virus A/EW/MPD411/07 (H6) (influenza A virus H6); assay: cell-based or functional assay
[3] = target: hemagglutinin of influenza virus A/Johannesburg/33/94 (H3) (influenza A virus H3); assay: cell-based or functional assay
[4] = target: hemagglutinin of influenza virus A/Panama/2007/1999 (H3) (influenza A virus H3); assay: cell-based or functional assay
[5] = target: hemagglutinin of influenza virus A/Brisbane/10/2007 (H3) (influenza A virus H3); assay: cell-based or functional assay
[6] = target: hemagglutinin of influenza virus A/EW/MPF461/07 (H5) (influenza A virus H5); assay: cell-based or functional assay
[7] = target: hemagglutinin of influenza virus A/WF/MPA 892/06 (H4) (influenza A virus H4); assay: cell-based or functional assay
[8] = target: hemagglutinin of influenza virus A/Brisbane/59/2007 (H1) (influenza A virus H1N1, UniProt B4URD6 18-565); assay: cell-based or functional assay
[9] = target: hemagglutinin of influenza virus A/Ck/HK/SSP176/09 (H9) (influenza A virus H9); assay: cell-based or functional assay
[10] = target: hemagglutinin of influenza virus A/Hong Kong/1073/99 (H9) (influenza A virus H9); assay: cell-based or functional assay
[11] = target: hemagglutinin of influenza virus A/Hong Kong/1/68 (H3) (influenza A virus H3N2, UniProt Q91MA7 17-566); assay: cell-based or functional assay
[12] = target: hemagglutinin of influenza virus A/Chick/Germany/N/49 (H10) (influenza A virus H10); assay: cell-based or functional assay
[13] = target: hemagglutinin of influenza virus A/Env/MPU3156/05 (H2) (influenza A virus H2); assay: cell-based or functional assay
[14] = target: hemagglutinin of influenza virus A/EW/MPH571/08 (H8) (influenza A virus H8); assay: cell-based or functional assay

B1: CR9114 (antibody, V domains shown)
VH: QVQLVQSGAEVKKPGSSVKVSCKSSGGTSNNYAISWVRQAPGQGLDWMGGISPIFGSTAYAQKFQGRVTISADIFSNTAYMELNSLTSEDTAVYFCARHGNYYYYSGMDVWGQGTTVTVSS
VL: SYVLTQPPAVSGTPGQRVTISCSGSDSNIGRRSVNWYQQFPGTAPKLLIYSNDQRPSVVPDRFSGSKSGTSASLAISGLQSEDEAEYYCAAWDDSLKGAVFGGGTQLTVL
binding result (FL4-06 B-m2-CL1+5-GCN4a): no binding
binding result (Mal2506-04 B-m2-CL1+5): no binding
binding result (Mal2506-04 B-m2): no binding
binding result (FL4-06 B-m2): no binding
binding result [1]: no binding
binding result (FL4-06 B-m2-CL1+5): no binding
virus neutralization assay on MDCK cells, geomean IC50 [2]: 10.5 µg/mL
virus neutralization assay on MDCK cells, geomean IC50 [3]: 21.9 µg/mL
virus neutralization assay on MDCK cells, geomean IC50 [4]: 39.9 µg/mL
virus neutralization assay on MDCK cells, geomean IC50 [5]: 5.6 µg/mL
virus neutralization assay on MDCK cells, geomean IC50 [6]: 10.5 µg/mL
virus neutralization assay on MDCK cells, geomean IC50 [7]: 0.8 µg/mL
virus neutralization assay on MDCK cells, geomean IC50 [8]: 2.6 µg/mL
virus neutralization assay on MDCK cells, geomean IC50 [9]: 6.3 µg/mL
virus neutralization assay on MDCK cells, geomean IC50 [10]: 4.4 µg/mL
virus neutralization assay on MDCK cells, geomean IC50 [11]: 19 µg/mL
virus neutralization assay on MDCK cells, geomean IC50 [12]: 15.7 µg/mL
virus neutralization assay on MDCK cells, geomean IC50 [13]: 8.8 µg/mL
virus neutralization assay on MDCK cells, geomean IC50 [14]: 8.8 µg/mL
